From the supplement of paper PMC9732359
± gives the uncertainty stated by the source.

Assay: protein stability index of a GFP-peptide fusion (yeast GPS) (PSI 1-4); higher = more stable; sorted into four equal gates, so the index is relative within each strain
Summary of the method: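 Tiled yeast protein peptides of 17 residues were each joined downstream of GFP, on plasmids that also express Cherry. The pooled library was maintained in yeast, and mid-log cultures in leucine-free medium were sorted into four equal gates on the GFP/Cherry ratio. Plasmids from every gate were amplified by PCR and sequenced on Illumina, with barcodes linking reads to strains. The protein stability index of a peptide is its gate-number-weighted read frequency summed over the gates.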

Row | Sequence | protein stability index (doa10∆) | protein stability index (pdr5∆) | protein stability index (san1∆) | protein stability index (ubr1∆)
1 | VHKERHDGGFDLVHIKD [RPS4A] | 1.48 ± 0.084 | 1.94 ± 0.069 | 1.61 ± 0.15 | 1.84 ± 0.05
2 | GEVVYLRKQKDSSTTSS [ITC1] | 1.79 ± 0.073 | 1.73 ± 0.08 | 1.48 ± 0.14 | 2.23 ± 0.081
3 | RSMLTVVRNMLALTTLS [YCG1] | 1.91 ± 0.061 | 1.9 ± 0.067 | 2.29 ± 0.065 | 2.49 ± 0.063
4 | NGEEDEVALFSQKAKLM [YLR335W/NUP2] | 1.16 ± 0.17 | 1.16 ± 0.13 |  | 1.17 ± 0.094
5 | LDALTRHIKSKHEDLSL [RPN4] | 2.54 ± 0.062 | 2.08 ± 0.068 | 1.57 ± 0.089 | 2.61 ± 0.059
6 | DLVLGKPLADLRPLFTR [YLR335W/NUP2] | 2.97 ± 0.072 | 2.76 ± 0.11 | 2.84 ± 0.16 | 2.27 ± 0.069
7 | TPYNIDRLTQLVRNGPN [RPO21] | 3.05 ± 0.12 | 3.19 ± 0.13 | 3.17 ± 0.076 | 3.18 ± 0.2
8 | RLKEKGSRVLIFSQMSR [ISW2] | 1.67 ± 0.056 | 2.19 ± 0.066 | 1.53 ± 0.11 | 2.06 ± 0.057
9 | GVTIEFSTNVKDEIVLS [RPL9A] | 3.09 ± 0.23 | 3.33 ± 0.13 | 3.3 ± 0.088 | 3.18 ± 0.065
10 | PLQNNLPELWALLNFVL [SNF2] | 2.69 ± 0.051 | 2.64 ± 0.045 | 2.56 ± 0.057 | 2.46 ± 0.037
11 | DAPFNKVVLKALFLSKI [RPL18A] | 1.55 ± 0.1 | 1.56 ± 0.074 | 1.25 ± 0.13 | 1.32 ± 0.067
12 | TSEEQTKFLAKNGVIPE [SWP82] | 3.71 ± 0.26 | 3.6 ± 0.23 |  | 3.3 ± 0.098
13 | NEDLEDGHYIEENSQGN [REC8] |  | 3.37 ± 0.27 |  | 
14 | NFYLKRFISDLLWLVLI [SWI1] | 1.8 ± 0.054 | 1.88 ± 0.065 | 1.86 ± 0.095 | 1.59 ± 0.046
15 | IAGVITRSKRLSQVYPT [CSN12] | 2.91 ± 0.18 | 2.84 ± 0.11 | 3.11 ± 0.12 | 3.01 ± 0.071
16 | VTRTHGNSGVVRATFRN [RPL33A] | 2.6 ± 0.075 | 2.82 ± 0.088 | 2.56 ± 0.092 | 2.86 ± 0.073
17 | VREYEQPDANKKKRSRT [ISW2] | 3.13 ± 0.14 | 3.31 ± 0.12 | 3.25 ± 0.13 | 3.29 ± 0.11
18 | IVPGTYIQERNPSQRPQ [RPS10B] | 3.01 ± 0.055 | 3.07 ± 0.045 | 3.08 ± 0.037 | 3.26 ± 0.038
19 | WKQDLTKEEAIKLASDA [PUP1] | 2.81 ± 0.19 | 3.16 ± 0.14 | 2.2 ± 0.14 | 3.01 ± 0.16
20 | PTHYKIPAWFLNRQNDI [RPS18A] | 2.12 ± 0.065 | 2.19 ± 0.062 | 1.8 ± 0.071 | 1.75 ± 0.046
21 | ESKLSLETLFNRWHSES [FAS2] | 3.26 ± 0.084 | 3.24 ± 0.1 | 3.1 ± 0.064 | 3.11 ± 0.065
22 | DDYDYVMYGTAYKFEEV [RPB8] | 2.55 ± 0.041 | 2.89 ± 0.048 | 2.95 ± 0.055 | 2.72 ± 0.051
23 | KRLLGTAFKSSPFGGSS [RPS23A] | 2.22 ± 0.043 | 2.61 ± 0.045 | 2.33 ± 0.055 | 2.23 ± 0.034
24 | LRDHALSLTAFTKNEEK [ITC1] | 1.42 ± 0.042 | 1.76 ± 0.047 | 1.38 ± 0.076 | 1.86 ± 0.046
25 | AKRAQFRKKRKFELGRQ [RPS8A] | 3.24 ± 0.08 | 3.28 ± 0.077 | 3.31 ± 0.066 | 3.02 ± 0.081
26 | AARHRARFRSIHILKVA [RPL20A] | 1.22 ± 0.077 | 1.18 ± 0.042 | 1.22 ± 0.11 | 1.1 ± 0.059
27 | SIHVNRVERSSRSTDNF [RRI1] | 3.32 ± 0.074 | 3.18 ± 0.069 | 3.03 ± 0.058 | 3.02 ± 0.051

Row | Sequence | protein stability index (doa10∆) | protein stability index (pdr5∆) | protein stability index (san1∆) | protein stability index (ubr1∆)
28 | TTILSFSSPAALMKTLI [NUT1] | 1.65 ± 0.047 | 1.75 ± 0.05 | 2.09 ± 0.1 | 1.78 ± 0.054
29 | RPFGVALLIAGHDADDG [PUP2] | 1.66 ± 0.16 | 2.66 ± 0.21 |  | 2.6 ± 0.14
30 | EAARICANKYMTTVSGR [RPL10] | 2.24 ± 0.24 | 2.59 ± 0.14 | 1.75 ± 0.2 | 1.93 ± 0.1
31 | VVSLKEGMFANANRVFR [SMC2] | 2.84 ± 0.071 | 3.11 ± 0.11 | 3.26 ± 0.06 | 3.18 ± 0.062
32 | CKNFEKTQLGSTMTEPV [GAL11] | 2.81 ± 0.05 | 2.84 ± 0.065 | 2.58 ± 0.054 | 2.84 ± 0.039
33 | DRTLPHFSKDDYSPESK [RPO21] | 3.07 ± 0.1 | 3.22 ± 0.074 | 2.85 ± 0.099 | 3.42 ± 0.093
34 | IKNVQDLLILTRSIKEK [SRB6] | 1.34 ± 0.11 | 1.31 ± 0.13 |  | 1.76 ± 0.2
35 | NDLRVSLNEKNALHTER [SMC1] | 3.11 ± 0.11 | 3.24 ± 0.096 | 2.67 ± 0.11 | 2.81 ± 0.089
36 | KHWGGGILGNKAQAKMD [RPL8A] | 3.39 ± 0.13 | 3.47 ± 0.11 | 3.53 ± 0.066 | 3.35 ± 0.087
37 | DKINQLSVVKYLLASLK [RPN9] | 2.02 ± 0.16 | 2.15 ± 0.2 |  | 
38 | ELNVEKLNTFNLQTFTH [SRP72] | 2.48 ± 0.2 | 2.33 ± 0.15 | 1.9 ± 0.13 | 2.42 ± 0.15
39 | VSKQLGNGLVDENKVEA [YAR002W/NUP60] | 3.17 ± 0.082 | 3.02 ± 0.068 | 3.38 ± 0.048 | 3.21 ± 0.049
40 | KAIFQFVCRGMAATQTI [ECM29] | 1.52 ± 0.051 | 1.73 ± 0.048 | 1.46 ± 0.17 | 1.48 ± 0.049
41 | INIQSFKDVEHISFNFS [BRR2] | 2.67 ± 0.081 | 2.79 ± 0.13 | 2.67 ± 0.092 | 2.75 ± 0.061
42 | ISEINFLHESSFDSIDH [CSI1] | 2.54 ± 0.05 | 2.95 ± 0.06 | 2.51 ± 0.069 | 2.84 ± 0.041
43 | VLTRMDEDRSKKEEELG [SNF2] | 3.51 ± 0.11 | 3.22 ± 0.1 | 3.38 ± 0.071 | 3.27 ± 0.084
44 | AITHMIDALGTEFSKND [SCL1] | 2.47 ± 0.069 | 2.54 ± 0.044 | 2.7 ± 0.08 | 2.61 ± 0.031
45 | LGKWYSKEDYETLKRDR [ARP7] | 3.31 ± 0.15 | 2.75 ± 0.2 | 3.33 ± 0.16 | 2.95 ± 0.15
46 | KIREDHINKIPSNSTTT [SRB8] | 2.63 ± 0.051 | 2.71 ± 0.044 | 2.54 ± 0.056 | 2.81 ± 0.034
47 | QESLLSRTFDKYSKLVD [SRP72] | 2.83 ± 0.059 | 2.9 ± 0.068 | 2.99 ± 0.055 | 2.7 ± 0.04
48 | FSKFERSKSSHKNERRV [SKI6] | 3.16 ± 0.082 | 3.16 ± 0.08 | 3 ± 0.064 | 3.25 ± 0.07
49 | PNIRTMSGTTKRLNGKR [SSN2] | 2.24 ± 0.23 | 2.74 ± 0.22 | 2.39 ± 0.17 | 3.46 ± 0.11
50 | TESITHDSSNGLFQVLH [NUT1] | 3.12 ± 0.073 | 3.22 ± 0.061 | 2.99 ± 0.058 | 3.17 ± 0.041
51 | DPESRTQSYNNQNTLKE [POP1] | 2.72 ± 0.069 | 2.69 ± 0.056 | 2.88 ± 0.079 | 2.79 ± 0.05
52 | NLQGDLQAIQEKLNKTD [ITC1] |  | 3.33 ± 0.21 | 3.33 ± 0.17 | 3.2 ± 0.16
53 | RMERIKDHLLLEEEFVS [RPT2] | 2.24 ± 0.12 | 2.22 ± 0.097 | 2.09 ± 0.13 | 2.23 ± 0.1
54 | KNNSSIRNVIMSASNAN [SRB8] | 1.59 ± 0.037 | 2.13 ± 0.053 | 1.88 ± 0.095 | 1.75 ± 0.044
